According to article PMC10588359, “14‐3‐3 protein inhibits CaMKK1 by blocking the kinase active site with its last two C‐terminal helices” (Protein Science : A Publication of the Protein Society, 2023):

B1: pCaMKK2: CaMKK2_(93–517) D330A phosphorylated by PKA at all four sites (domain or fragment, human, UniProt Q96RR4 93-517, looked up)
chain: HLSGRKLSLQERSQGGLAAGGSLDMNGRCICPSLPYSPVSSPQSSPRLPRRPTVESHHVSITGMQDCVQLNQYTLKDEIGKGSYGVVKLAYNENDNTYYAMKVLSKKKLIRQAGFPRRPPPRGTRPAPGGCIQPRGPIEQVYQEIAILKKLDHPNVVKLVEVLDDPNEDHLYMVFELVNQGPVMEVPTLKPLSEDQARFYFQDLIKGIEYLHYQKIIHRDIKPSNLLVGEDGHIKIAAFGVSNEFKGSDALLSNTVGTPAFMAPESLSETRKIFSGKALDVWAMGVTLYCFVFGQCPFMDERIMCLHSKIKSQALEFPDQPDIAEDLKDLITRMLDKNPESRIVVPEIKLHPWVTRHGAEPLPSEDENCTLVEVTEEEVENSVKHIPSLATVILVKTMIRKRSFGNPFEGSRREERSLSAPGNLL
modifications: phosphoserine at 100, phosphothreonine at 145, phosphoserine at 495, phosphoserine at 511 (PKA; stoichiometric by LC-MS)
notes: Same construct as m3 after PKA phosphorylation; also called phosphorylated CaMKK2; source: E. coli BL21 (DE3), purified, phosphorylated by PKA in vitro, SEC
B2: CaMKK2_(93–517) D330A, unphosphorylated (domain or fragment)
chain: B1 chain
notes: also called Ca^2+/CaM-dependent protein kinase kinase 2; Not-P CaMKK2; source: E. coli BL21 (DE3), purified
B3: Human 14‐3‐3γ (residues 1–235 lacking the C‐terminal 12‐residues‐long flexible tail) (domain or fragment, UniProt P61981 1-235, looked up)
chain: MVDREQLVQKARLAEQAERYDDMAAAMKNVTELNEPLSNEERNLLSVAYKNVVGARRSSWRVISSIEQKTSADGNEKKIEMVRAYREKIEKELEAVCQDVLSLLDNYLIKNCSETQYESKVFYLKMKGDYYRYLAEVATGEKRATVVESSEKAYSEAHEISKEHMQPTHPIRLGLALNYSVFYYEIQNAPEQACHLAKTAFDDAIAELDTLNEDSYKDSTLIMQLLRDNLTLWTS
notes: human 14-3-3γ, residues 1-235, lacking the C-terminal 12 residues; Homodimer; also called 14-3-3γ dimer; source: expressed and purified as described previously (Obsilova et al., 2004)
B4: CaMKK1(67-480) D293A, unphosphorylated (domain or fragment)
chain: SLSARKLSLQERPAGSYLEAQAGPYATGPASHISPRAWRRPTIESHHVAISDAEDCVQLNQYKLQSEIGKGAYGVVRLAYNESEDRHYAMKVLSKKKLLKQYGFPRRPPPRGSQAAQGGPAKQLLPLERVYQEIAILKKLDHVNVVKLIEVLDDPAEDNLYLVFDLLRKGPVMEVPCDKPFSEEQARLYLRDVILGLEYLHCQKIVHRDIKPSNLLLGDDGHVKIAAFGVSNQFEGNDAQLSSTAGTPAFMAPEAISDSGQSFSGKALDVWATGVTLYCFVYGKCPFIDDFILALHRKIKNEPVVFPEEPEISEELKDLILKMLDKNPETRIGVPDIKLHPWVTKNGEEPLPSEEEHCSVVEVTEEEVKNSVRLIPSWTTVILVKSMLRKRSFGNPFEPQARREERSMSAPGNL
notes: source: E. coli BL21 (DE3), purified
B5: pCaMKK1: CaMKK1(67-480) D293A phosphorylated by PKA at four sites (domain or fragment)
chain: B4 chain
modifications: phosphoserine at 74, phosphothreonine at 108, phosphoserine at 458, phosphoserine at 475
notes: also called 4xPhosphorylated CaMKK1; source: E. coli BL21 (DE3), purified; phosphorylated with PKA, then SEC
B6: pCaMKK1: CaMKK1_(67–480) D293A phosphorylated by PKA at all four sites (domain or fragment, human, UniProt Q8N5S9 67-480, looked up)
chain: B4 chain
modifications: phosphoserine at 74, phosphothreonine at 108, phosphoserine at 458, phosphoserine at 475 (PKA; stoichiometric by LC-MS)
notes: Same construct as m1 after PKA phosphorylation; also called phosphorylated CaMKK1; source: E. coli BL21 (DE3), purified, phosphorylated by PKA in vitro, SEC
B7: CaMKK1_(67–480) D293A, unphosphorylated (domain or fragment)
chain: B4 chain
notes: Cloned into pRSFDuet-1; purification as in Psenakova et al., 2018; also called Ca^2+/CaM-dependent protein kinase kinase 1; Not-P CaMKK1; source: E. coli BL21 (DE3), purified

Assays:
[1] = molecular target: T1, Dansyl‐labeled rat calmodulin (DANS‐CaM), Ca^2+-bound (rat, UniProt P0DP29 1-149, dansyl label (dansyl chloride; site not stated)); test: fluorescence polarisation; 2 μM DANS-CaM titrated by 30 μM CaMKK proteins and their binary dilution series, with and without 60 μM 14-3-3γ; 10 mM HEPES–NaOH pH 7.4, 150 mM NaCl, 1 mM CaCl2, 0.1% Tween 20, 0.1% BSA; one-site-binding model; conditions: both partners purified
T1 construct: rat calmodulin, labeled with dansyl chloride; Assays in 1 mM CaCl2; also called dansyl-Ca^2+/CaM; DANS-labeled CaM; source: prepared as described previously (Holakovska et al., 2011), labeled by dansyl chloride, SEC

[2] = molecular target: B3; test: AUC; sedimentation velocity of mixtures of 0.06–6 μM pCaMKK1 or pCaMKK2 with 1.2 μM 14-3-3γ; direct modeling with the Lamm equation, Langmuir binding model, one pCaMKK on a 14-3-3γ homodimer; apparent KD; 50 mM Tris–HCl pH 7.5, 150 mM NaCl, 1 mM TCEP; 20°C; conditions: both partners purified
[3] = molecular target: T2, Rat calmodulin, Ca^2+-bound (Ca^2+/CaM) (rat, UniProt P0DP29 1-149); test: AUC; sedimentation velocity of CaMKK1 or CaMKK2 with Ca^2+/CaM (1:1 molar ratio); 50 mM Tris–HCl pH 7.5, 150 mM NaCl, 1 mM TCEP, 1 mM CaCl2; 20°C; conditions: both partners purified
T2 construct: rat calmodulin; Unlabelled CaM, used with 1 mM CaCl2 in the ultracentrifuge; source: prepared as described previously (Holakovska et al., 2011)

[4] = molecular target: the molecule itself; test: SEC-SAXS; in-line SEC-SAXS on Superdex 200 Increase 5/150 GL; complexes mixed at 1:2 molar ratio (pCaMKK:14-3-3γ); 50 mM Tris–HCl pH 7.5, 150 mM NaCl, 1 mM TCEP, 3% glycerol
[5] = molecular target: B6; test: AUC; sedimentation velocity of mixtures of 0.06–6 μM pCaMKK1 or pCaMKK2 with 1.2 μM 14-3-3γ; direct modeling with the Lamm equation, Langmuir binding model, one pCaMKK on a 14-3-3γ homodimer; apparent KD; 50 mM Tris–HCl pH 7.5, 150 mM NaCl, 1 mM TCEP; 20°C; conditions: both partners purified
[6] = molecular target: B1; test: as above; conditions: both partners purified
[7] = molecular target: T3, dansyl-labeled calmodulin (DANS-CaM), Ca2+-bound (rat, UniProt P0DP29 1-149, dansyl label (dansyl chloride; site not stated)); test: fluorescence polarisation; 2 μM DANS-CaM titrated with CaMKK (30 μM and binary dilution series), 1 h incubation; 10 mM HEPES-NaOH pH 7.4, 150 mM NaCl, 1 mM CaCl2, 0.1% Tween 20, 0.1% BSA; one-site-binding model; conditions: both partners purified
T3 construct: rat calmodulin (CaM); The assay buffer held 1 mM CaCl2 (Ca2+/CaM); also called dansyl-Ca2+/CaM; source: prepared as described previously (Holakovska et al., 2011); labeled with dansyl chloride, SEC

[8] = molecular target: T3, dansyl-labeled calmodulin (DANS-CaM), …; test: fluorescence polarisation; as a1 but with 60 μM 14-3-3γ present: 2 μM DANS-CaM titrated with CaMKK (30 μM and binary dilution series), 1 h incubation; 10 mM HEPES-NaOH pH 7.4, 150 mM NaCl, 1 mM CaCl2, 0.1% Tween 20, 0.1% BSA; one-site-binding model; conditions: both partners purified

For B1, the binding result [1] was “binds” and the “stoichiometry N” value [2] was 2 14-3-3γ protomers per pCaMKK.

B2 was tested, and the “stoichiometry N” value [3] was 1.

B3 was tested, and the “stoichiometry N” value [4] was 2, the Kd [5] was 21 ± 3 nM and the Kd [6] was 60 ± 15 nM.

For B4, the Kd [7] was 600 ± 110 nM and the Kd [8] was 630 ± 70 nM.

Work on B5 yielded a Kd [7] of 2160 ± 300 nM.

In the case of B6, the “stoichiometry N” value [2] is reported as 2 14-3-3γ protomers per pCaMKK.

B7 was tested, and the “stoichiometry N” value [3] was 1.
